This is an account of results in PMC8575500.

This test addresses C12-AcpP (Escherichia coli acyl carrier protein AcpP, wt, carrying a C12 acyl chain) (Escherichia coli) (UniProt P0A6A8).
Sequence of UniProt P0A6A8 (P0A6A8 whole entry): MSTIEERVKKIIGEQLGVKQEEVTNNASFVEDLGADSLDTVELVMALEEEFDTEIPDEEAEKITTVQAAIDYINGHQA
As for “Escherichia coli FabF K65A/R68A/K69A (enzyme)”, the completion of the reaction after 10 min, from the remaining C12-AcpP by HPLC came out at 15%.

Take Escherichia coli FabF R206A (enzyme): the completion of the reaction after 10 min, from the remaining C12-AcpP by HPLC was found to be 39%.

“Escherichia coli FabF R127A/K128A/R206A (enzyme)” returned a completion of the reaction after 10 min, from the remaining C12-AcpP by HPLC of 13%.

In turn, “Escherichia coli FabF K65A/R127A/K128A (enzyme)” displayed a completion of the reaction after 10 min, from the remaining C12-AcpP by HPLC of 44%.

“Escherichia coli FabF K65A/K69A (enzyme)” came in with a completion of the reaction after 10 min, from the remaining C12-AcpP by HPLC of 65%.
